This assay has as its target monkey Mpl (on BaF3-monkey Mpl cells) (monkey).

For one substance, EC50 (read off the curve) [B) BaF-monkey Mpl] results are on record in patent publication US20090214535A1.

Turning to hTPO (ligand), the EC50 (read off the curve) [B) BaF-monkey Mpl] is 0.01 nM.
